Here are results for four substances from patent US20190374607A1.

In this test the target is chemokine (C-X-C) motif receptor (CXCR) 4 (UniProt P61073). Kind of test: cell-based or functional assay.
Sequence of chemokine (C-X-C) motif receptor (CXCR) 4 (P61073 whole entry): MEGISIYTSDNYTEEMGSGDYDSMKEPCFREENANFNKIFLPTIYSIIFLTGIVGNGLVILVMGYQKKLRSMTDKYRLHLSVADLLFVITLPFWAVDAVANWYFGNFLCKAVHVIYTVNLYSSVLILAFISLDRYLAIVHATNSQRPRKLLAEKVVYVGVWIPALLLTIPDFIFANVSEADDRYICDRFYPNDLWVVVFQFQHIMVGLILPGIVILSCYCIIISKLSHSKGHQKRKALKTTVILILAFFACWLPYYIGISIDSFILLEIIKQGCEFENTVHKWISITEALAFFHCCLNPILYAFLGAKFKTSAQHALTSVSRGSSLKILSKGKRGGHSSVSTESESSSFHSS

The substance “CXCL12 K27A/R41A/R47A (from UniProt P48061 22-89) (ligand)” registered an EC50, inhibition of thrombin-mediated hyper-permeability of hPPAEC (t=255 min) of 0.05 to 0.5 nM.
The substance “CXCL12 R47E (from UniProt P48061 22-89) (ligand)” yielded an EC50, inhibition of thrombin-mediated hyper-permeability of hPPAEC (t=255 min) of 0.5 to 50 nM.
The substance “CXCL12β (from UniProt P48061 22-93) (ligand)” gave an EC50, inhibition of thrombin-mediated hyper-permeability of hPPAEC (t=255 min) of 0.05 to 0.5 nM.
The substance “Locked dimer CXCL122 (constitutively dimeric CXCL12 variant, L36C/A65C) (from UniProt O62657 22-89) (ligand)” returned a concentration at which thrombin-mediated hPPAEC barrier impairment was affected (t=255 min) of 50 nM.
